Experimental data: publication PMC10315065 (Journal of Innate Immunity, 2023)

Columns and labels:
GAPDH, J774 = assay: GAPDH activity in cell lysate; assay type: cell-based, mouse
P2X7, THP-1 = assay type: cell-based; conditions: IFNγ; empty vector vs GAPDH knockdown; n = 3
cell surface GAPDH, J774 = assay type: cell-based, mouse; conditions: IFNγ 100 ng/mL, 24 h; n = 3
[1] = tested on: cell surface GAPDH, THP-1; assay type: cell-based; conditions: IFNγ; empty vector vs GAPDH knockdown; n = 3

B1: IFNγ: recombinant mouse IFNγ (PeproTech #315-05) (protein, UniProt P01580 23-155, looked up)
Interferon gamma: HGTVIESLESLNNYFNSSGIDVEEKSLFLDIWRNWQKDGDMKILQSQIISFYLRLFEVLKDNQAISNNISVIESHLITTFFSNSKAKKDAFMSIAKFEVNNPQVQRQAFNELIRVVHQLLPESSLRKRKRSRC
- GAPDH activity (GAPDH, J774; IFNγ 100 ng/mL, 24 h): enhanced GAPDH activity
- total cellular GAPDH (GAPDH, J774; IFNγ treatment, Fig. 1i): significant increase in total cellular GAPDH
- surface P2X7 expression (P2X7, THP-1): surface expression of P2X7 continued to be elevated irrespective of GAPDH K/D
- increase in cell surface GAPDH localization (cell surface GAPDH, J774): ~50%
- GAPDH recruitment on the cell surface, WT and GAPDH K/D [1]: enhanced GAPDH recruitment on the cell surface of WT cells but failed to do so in GAPDH K/D cells
